The values below come from the supplement of paper PMC5998384.

Data set [1] concerns HeLa Kyoto. In words: solubility change mitosis vs G1/S (difference of NP-40 vs SDS log2 ratios) (log2 ratio difference); higher = more soluble in mitosis.
The test system of data set [2] is HeLa Kyoto. Description: thermal stability score vs G1/S (z-score of summed log2 fold changes over temperatures); higher = more thermally stable than in G1/S.
Data set [3] relates to HeLa Kyoto. Description: melting temperature (median over replicates), in situ; higher = more thermally stable.
Data set [4] has as its system HeLa Kyoto. In words: solubility in G1/S (NP-40 vs SDS abundance) (log2 ratio); higher = more soluble. As to conditions: cell cycle stage: G1/S.
The mark [5] stands for this setting: cell cycle stage: early G1 (4.5 h after nocodazole release).
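Wherever melting temperature (median over replicates), in situ is given: HeLa Kyoto cells synchronized by double thymidine or nocodazole block, proteins quantified by TMT10plex mass spectrometry, three independent biological replicates.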
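Wherever solubility change mitosis vs G1/S (difference of NP-40 vs SDS log2 ratios) is given: synchronized HeLa Kyoto cells (double thymidine block for G1/S, nocodazole release for mitosis), protein amounts in NP-40 versus SDS lysates quantified by mass spectrometry, three biological replicates.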
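Wherever solubility in G1/S (NP-40 vs SDS abundance) is given: HeLa Kyoto cells arrested at G1/S by double thymidine block, proteins quantified by TMT10plex mass spectrometry in mild NP-40 versus SDS extracts, three biological replicates.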
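Wherever thermal stability score vs G1/S (z-score of summed log2 fold changes over temperatures) is given: synchronized HeLa Kyoto cells, proteins quantified by TMT10plex mass spectrometry, three biological replicates, mitosis taken 0.5 h after nocodazole release, G1/S directly after double thymidine block.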

Sequence of MCTP2 (chain, as listed by the source): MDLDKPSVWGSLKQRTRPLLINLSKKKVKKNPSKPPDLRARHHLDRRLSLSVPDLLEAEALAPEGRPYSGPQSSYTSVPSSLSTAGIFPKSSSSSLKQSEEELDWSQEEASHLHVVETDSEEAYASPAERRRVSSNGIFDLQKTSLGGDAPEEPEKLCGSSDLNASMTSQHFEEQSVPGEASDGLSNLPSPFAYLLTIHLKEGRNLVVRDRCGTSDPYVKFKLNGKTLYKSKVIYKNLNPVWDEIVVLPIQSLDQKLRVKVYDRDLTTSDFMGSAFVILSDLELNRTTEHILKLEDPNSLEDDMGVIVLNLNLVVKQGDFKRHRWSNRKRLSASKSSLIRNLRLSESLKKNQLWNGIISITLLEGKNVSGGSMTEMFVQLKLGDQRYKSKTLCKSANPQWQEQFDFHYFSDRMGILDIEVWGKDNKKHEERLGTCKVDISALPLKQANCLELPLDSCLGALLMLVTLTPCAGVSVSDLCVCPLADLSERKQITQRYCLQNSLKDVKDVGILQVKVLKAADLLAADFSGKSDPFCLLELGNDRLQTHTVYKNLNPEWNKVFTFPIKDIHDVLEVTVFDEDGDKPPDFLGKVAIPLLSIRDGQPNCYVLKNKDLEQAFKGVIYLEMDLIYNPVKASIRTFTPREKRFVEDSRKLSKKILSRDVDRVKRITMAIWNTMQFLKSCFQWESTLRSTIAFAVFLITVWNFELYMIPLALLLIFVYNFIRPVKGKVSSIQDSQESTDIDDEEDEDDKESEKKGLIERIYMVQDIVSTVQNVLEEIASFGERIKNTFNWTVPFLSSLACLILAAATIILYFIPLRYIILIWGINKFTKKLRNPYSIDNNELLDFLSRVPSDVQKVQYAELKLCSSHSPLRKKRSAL

Turning to “MCGNNMSTPLPAIVPAARKATAAVIFLHGLGDTGHGWAEAFAGIRSSHIKYICPHAPVRPVTLNMNVAMPSWFDIIGLSPDSQEDESGIKQAAENIKALIDQEVKNGIPSNRIILGGFSQGGALSLYTALTTQQKLAGVTALSCWLPLRASFPQGPIGGANRDISILQCHGDCDPLVPLMFGSLTVEKLKTLVNPANVTFKTYEGMMHSSCQQEMMDVKQFIDKLLPPID [LYPLA1]”, in the data set with HeLa Kyoto [1], the “solubility change mitosis (log2)” value stood at 0.23. The thermal stability score was 0.0704 in the data set with HeLa Kyoto [2] (setting [5]) and -0.796 in the data set on HeLa Kyoto [2] (cell cycle stage: mitosis). Also, the results for the melting temperature with HeLa Kyoto [3] (cell cycle stage: G1/S) and with HeLa Kyoto [3] (cell cycle stage: mitosis) were 54.6 °C and 56.2 °C, respectively. Moreover, the “solubility in G1/S (log2)” value in the data set with HeLa Kyoto [4] is 0.619.
Regarding MCM3AP, in the data set on HeLa Kyoto [1], the “solubility change mitosis (log2)” value is 0.655. Moreover, the thermal stability score is -0.00305 in the data set with HeLa Kyoto [2] (setting [5]) and -0.291 in the data set with HeLa Kyoto [2] (cell cycle stage: mitosis). For the same substance, the results for the melting temperature in the data set with HeLa Kyoto [3] (cell cycle stage: G1/S) and in the data set on HeLa Kyoto [3] (cell cycle stage: mitosis) were 48.7 °C and 49.5 °C, respectively. Further, the “solubility in G1/S (log2)” value with HeLa Kyoto [4] is -0.867.
As for “MCSLGLFPPPPPRGQVTLYEHNNELVTGSSYESPPPDFRGQWINLPVLQLTKDPLKTPGRLDHGTRTAFIHHREQVWKRCINIWRDVGLFGVLNEIANSEEEVFEWVKTASGWALALCRWASSLHGSLFPHLSLRSEDLIAEFAQVTNWSSCCLRVFAWHPHTNKFAVALLDDSVRVYNASSTIVPSLKHRLQRNVASLAWKPLSASVLAVACQSCILIWTLDPTSLSTRPSSGCAQVLSHPGHTPVTSLAWAPSGGRLLSASPVDAAIRVWDVSTETCVPLPWFRGGGVTNLLWSPDGSKILATTPSAVFRVWEAQMWTCERWPTLSGRCQTGCWSPDGSRLLFTVLGEPLIYSLSFPERCGEGKGCVGGAKSATIVADLSETTIQTPDGEERLGGEAHSMVWDPSGERLAVLMKGKPRVQDGKPVILLFRTRNSPVFELLPCGIIQGEPGAQPQLITFHPSFNKGALLSVGWSTGRIAHIPLYFVNAQFPRFSPVLGRAQEPPAGGGGSIHDLPLFTETSPTSAPWDPLPGPPPVLPHSPHSHL [AAAS]”, in the data set with HeLa Kyoto [1], the “solubility change mitosis (log2)” value was determined as 0.0315. Also, the thermal stability score is -4.87 in the data set on HeLa Kyoto [2] (setting [5]) and -7.02 in the data set on HeLa Kyoto [2] (cell cycle stage: mitosis). Besides, the melting temperature in the data set with HeLa Kyoto [3] (cell cycle stage: G1/S) stood at 53.6 °C; in the data set with HeLa Kyoto [3] (cell cycle stage: mitosis), 51 °C. Further, the “solubility in G1/S (log2)” value in the data set on HeLa Kyoto [4] is -0.296.
As for MCTP2, the “solubility change mitosis (log2)” value with HeLa Kyoto [1] is -0.136. The thermal stability score with HeLa Kyoto [2] (setting [5]) worked out at 0.55; with HeLa Kyoto [2] (cell cycle stage: mitosis) it was 0.479. Moreover, the melting temperature in the data set with HeLa Kyoto [3] (cell cycle stage: G1/S) is 50.2 °C; with HeLa Kyoto [3] (cell cycle stage: mitosis), 50.1 °C. In addition, the “solubility in G1/S (log2)” value with HeLa Kyoto [4] is -0.274.
For “MDADDSRAPKGSLRKFLEHLSGAGKAIGVLTSGGDAQGMNAAVRAVVRMGIYVGAKVYFIYEGYQGMVDGGSNIAEADWESVSSILQVGGTIIGSARCQAFRTREGRLKAACNLLQRGITNLCVIGGDGSLTGANLFRKEWSGLLEELARNGQIDKEAVQKYAYLNVVGMVGSIDNDFCGTDMTIGTDSALHRIIEVVDAIMTTAQSHQRTFVLEVMGRHCGYLALVSALACGADWVFLPESPPEEGWEEQMCVKLSENRARKKRLNIIIVAEGAIDTQNKPITSEKIKELVVTQLGYDTRVTILGHVQRGGTPSAFDRILASRMGVEAVIALLEATPDTPACVVSLNGNHAVRLPLMECVQMTQDVQKAMDERRFQDAVRLRGRSFAGNLNTYKRLAIKLPDDQIPKTNCNVAVINVGAPAAGMNAAVRSAVRVGIADGHRMLAIYDGFDGFAKGQIKEIGWTDVGGWTGQGGSILGTKRVLPGKYLEEIATQMRTHSINALLIIGGFEAYLGLLELSAAREKHEEFCVPMVMVPATVSNNVPGSDFSIGADTALNTITDTCDRIKQSASGTKRRVFIIETMGGYCGYLANMGGLAAGADAAYIFEEPFDIRDLQSNVEHLTEKMKTTIQRGLVLRNESCSENYTTDFIYQLYSEEGKGVFDCRKNVLGHMQQGGAPSPFDRNFGTKISARAMEWITAKLKEARGRGKKFTTDDSICVLGISKRNVIFQPVAELKKQTDFEHRIPKEQWWLKLRPLMKILAKYKASYDVSDSGQLEHVQPWSV [PFKP]”, the “solubility change mitosis (log2)” value in the data set on HeLa Kyoto [1] was -0.138. For the same substance, the values for the thermal stability score with HeLa Kyoto [2] (setting [5]) and in the data set with HeLa Kyoto [2] (cell cycle stage: mitosis) were -0.744 and -1.49, respectively. Also, the values for the melting temperature in the data set with HeLa Kyoto [3] (cell cycle stage: G1/S) and with HeLa Kyoto [3] (cell cycle stage: mitosis) were 57.4 °C and 58.3 °C, respectively. For the same substance, the “solubility in G1/S (log2)” value in the data set with HeLa Kyoto [4] is -0.0125.
“MDAGFFRGTSAEQDNRFSNKQKKLLKQLKFAECLEKKVDMSKVNLEVIKPWITKRVTEILGFEDDVVIEFIFNQLEVKNPDSKMMQINLTGFLNGKNAREFMGELWPLLLSAQENIAGIPSAFLELKKEEIKQRQIEQEKLASMKKQDEDKDKRDKEEKESSREKRERSRSPRRRKSRSPSPRRRSSPVRRERKRSHSRSPRHRTKSRSPSPAPEKKEKTPELPEPSVKVKEPSVQEATSTSDILKVPKPEPIPEPKEPSPEKNSKKEKEKEKTRPRSRSRSKSRSRTRSRSPSHTRPRRRHRSRSRSYSPRRRPSPRRRPSPRRRTPPRRMPPPPRHRRSRSPVRRRRRSSASLSGSSSSSSSSRSRSPPKKPPKRTSSPPRKTRRLSPSASPPRRRHRPSPPATPPPKTRHSPTPQQSNRTRKSRVSVSPGRTSGKVTKHKGTEKRESPSPAPKPRKVELSESEEDKGGKMAAADSVQQRRQYRRQNQQSSSDSGSSSSSEDERPKRSHVKNGEVGRRRRHSPSRSASPSPRKRQKETSPRGRRRRSPSPPPTRRRRSPSPAPPPRRRRTPTPPPRRRTPSPPPRRRSPSPRRYSPPIQRRYSPSPPPKRRTASPPPPPKRRASPSPPPKRRVSHSPPPKQRSSPVTKRRSPSLSSKHRKGSSPSRSTREARSPQPNKRHSPSPRPRAPQTSSSPPPVRRGASSSPQRRQSPSPSTRPIRRVSRTPEPKKIKKAASPSPQSVRRVSSSRSVSGSPEPAAKKPPAPPSPVQSQSPSTNWSPAVPVKKAKSPTPSPSPPRNSDQEGGGKKKKKKKDKKHKKDKKHKKHKKHKKEKAVAAAAAAAVTPAAIAAATTTLAQEEPVAAPEPKKETESEAEDNLDDLEKHLREKALRSMRKAQVSPQS [SRRM1]”: the “solubility change mitosis (log2)” value in the data set with HeLa Kyoto [1] turned out to be 1.02. In addition, the thermal stability score was -6.13 with HeLa Kyoto [2] (setting [5]) and -6.36 in the data set on HeLa Kyoto [2] (cell cycle stage: mitosis). For the same substance, the melting temperature in the data set with HeLa Kyoto [3] (cell cycle stage: G1/S) was determined as 51.3 °C; in the data set with HeLa Kyoto [3] (cell cycle stage: mitosis), 50 °C. In the data set on HeLa Kyoto [4], the “solubility in G1/S (log2)” value is -1.06.
